Results from patent US20090118194A1, “Measurement of melanocortin peptides and uses thereof” (Auckland UniServices Limited, priority 2002, published 2009).
“Also recorded” adds a separate entry of the source.

System: primary rat osteoblasts
Assay: Primary rat osteoblast proliferation assay ([3H]thymidine incorporation, cell number)
Format: cell-based
Text: Primary rat osteoblasts were isolated from 20 day fetal rat calvariae. (The use of animals for these studies was approved by the Auckland Animal Ethics Committee.) Calvariae were excised and the frontal and parietal bones, free of suture and periosteal tissue, were collected and sequentially digested using collagenase as previously described (Cornish J, Callon K E, Lin C Q X, Xiao C L, Mulvey T B, Cooper G J S, Reid I R Trifluoroacetate, a contaminant in puritied proteins, inhibits proliferation of osteoblasts and chondrocytes. Amer J Physiol Endocrinol Metab 277: E779-E783, 1999). Primary rat osteoblasts were grown in DMEM supplemented with 10% FCS, 50 U/ml penicillin and 50 μg/ml streptomycin. After 48 hour, the medium was changed to MEM. Confluence was reached within 5-6 days, at which time the cells were subcultured into 10 cm culture plates for RNA preparation or 24 well plates for proliferation assays.
Primary rat osteoblasts were subcultured into 24 well plates at a density of 5×10^4 cells/ml/well in MEM, 5% FCS for 24 hours. Cells were growth arrested in MEM, 0.1% bovine serum albumin (BSA) for 24 hour and then fresh media and experimental compounds were added for a further 24 hours. Cells were pulsed with [^3H]thymidine (0.5 μCi/well) 2 hours before the end of the experimental incubation. The experiment was terminated and both cell numbers and thymidine incorporation were assessed. Cell numbers were analysed by detaching cells from the wells by exposure to trypsin/EDTA (0.05%/0.53 mM) for approximately 5 minutes at 37° C. Counting was performed in a hemocytometer chamber. Results are expressed per well. [^3H]Thymidine incorporation was analysed by washing the cells in MEM followed by the addition of 10% trichloroacetic acid. The precipitate was washed twice with ethnol:ether (3:1) and the wells desiccated at room temperature. The residue was dissolved in 2M KOH at 55° C. for 30 minutes, neutralized with 1M HCl, and an aliquot counted for radioactivity. Results are expressed as dpm per well. Each experiment was performed at least three times using experimental groups consisting of at least six wells.
Data are presented as mean±SEM. The significance of differences between groups was determined using Student's t tests for unpaired data and a 5% significance level. The comparisons to be made in each experiment were specified a priori, so no adjustment for multiple comparisons was necessary. Where several experiments have been shown in one figure, the data are expressed as the ratio of results in treatment groups to those in the control group and the ‘P’ values shown were calculated using the data from the individual experiments, before the data were pooled.

## ACTH1-24: melanocortin peptide purchased from Bachem California (SYSMEHFRWGKPVGKKRRPVKVYP; Corticotropin; UniProt P01189 138-161, looked up, fragment)
10^−7 M against α-MSH 10^−8 M and 10^−7 M, growth arrested primary rat osteoblasts
  antagonism of α-MSH stimulated [3H] thymidine uptake: inhibited two doses of α-MSH (10^−8 M and 10^−7 M) from stimulating [^3H] thymidine uptake; also recorded: antagonise α-MSH stimulated stimulation of thymidine incorporation
Growth arrested primary rat osteoblasts, 10^−7 M, alone
  thymidine incorporation or cell numbers (proliferation): did not stimulate thymidine incorporation or cells numbers; also recorded: no significant effect on osteoblast proliferation

B1: agouti protein: recombinant mouse agouti protein, antagonist of melanocortin peptides coupling MC1-R, MC2-R, and MC4-R (protein, UniProt Q03288 23-131, looked up)
Agouti-signaling protein: HLALEETLGDDRSLRSNSSMNSLDFSSVSIVALNKKSKKISRKEAEKRKRSSKKKASMKKVARPPPPSPCVATRDSCKPPAPACCDPCASCQCRFFGSACTCRVLNPNC
Agouti protein 10^−9 M-10^−7 M, primary rat osteoblasts
  antagonism of α-MSH stimulated osteoblast proliferation: did not antagonise α-MSH stimulated osteoblast proliferation
Growth arrested primary rat osteoblasts, 10^−9-10^−7 M, alone
  thymidine incorporation: significantly stimulated thymidine incorporation
Primary rat osteoblasts
  additivity with α-MSH stimulated thymidine incorporation: not additive
